The target in test [1] is Surfactant associated protein-A (human (endogenous in BAL fluid and serum)) (UniProt Q8IWL2). Briefly: SEC; Superose 6 column, 1 ml of BAL fluid loaded, fractions of 800 µl, SP-A in the fractions by slot blot; column calibrated with blue dextran (2000 kDa), holotransferrin (669 kDa) and bovine serum albumin (66 kDa); a peak counts as present at 20 % or more of total SP-A.
For test [2] the target is unchanged. Nature of the test: SEC; Superose 6 column, 500 µl of serum loaded, fractions of 800 µl, SP-A in the fractions by slot blot; column calibrated with blue dextran (2000 kDa), holotransferrin (669 kDa) and bovine serum albumin (66 kDa); a peak counts as present at 20 % or more of total SP-A. On the technique in general: In gel filtration, larger molecules generally elute earlier.

The target is the same in test [3]. The description is as above. This is another data set of the same source.
The target is the same in test [4].

These results are taken from article PMC3517609.

“And” between values parts separate entries of the source, which are not always exact repeats. Equal values may be shown once.

One may read the stoichiometry N as the number of molecules, sites or subunits per partner or assembly. In turn, “Surfactant associated protein-A (from UniProt Q8IWL2 21-248) (natural protein)” registered a stoichiometry N in test [1] of 18. Besides, the stoichiometry N in test [2] is 2 and 3. This substance displayed a stoichiometry N in test [3] of 18. In test [4], the size of agglutinates of anti-SP-A latex beads; BAL, 6mers, chronic bronchitis (n = 10) turned out to be 316 Pixel; the size of agglutinates of anti-SP-A latex beads; BAL, 6mers, controls (n = 10) is 352 Pixel; the size of agglutinates of anti-SP-A latex beads; BAL, 6mers, cystic fibrosis (n = 10) came to 234 Pixel; the size of agglutinates of anti-SP-A latex beads; BAL, 18mers, chronic bronchitis (n = 10) stood at 370 Pixel. In test [4], this substance showed a size of agglutinates of anti-SP-A latex beads; BAL, 18mers, controls (n = 10) of 517 Pixel; a size of agglutinates of anti-SP-A latex beads; BAL, 18mers, cystic fibrosis (n = 10) of 316 Pixel; a size of agglutinates of anti-SP-A latex beads; BAL, trimers, chronic bronchitis (n = 10) of 114 Pixel; a size of agglutinates of anti-SP-A latex beads; BAL, trimers, controls (n = 10) of 118 Pixel. For the same substance, in test [4], the size of agglutinates of anti-SP-A latex beads; BAL, trimers, cystic fibrosis (n = 10) stood at 74 Pixel; the size of agglutinates of anti-SP-A latex beads; serum, 6mers, chronic bronchitis (n = 10) turned out to be 377 Pixel; the size of agglutinates of anti-SP-A latex beads; serum, 6mers, controls (n = 10) amounted to 361 Pixel; the size of agglutinates of anti-SP-A latex beads; serum, 6mers, cystic fibrosis (n = 10) was 380 Pixel. Moreover, in test [4], the size of agglutinates of anti-SP-A latex beads; serum, 18mers, chronic bronchitis (n = 10) stood at 469 Pixel; the size of agglutinates of anti-SP-A latex beads; serum, 18mers, controls (n = 10) is 525 Pixel; the size of agglutinates of anti-SP-A latex beads; serum, 18mers, cystic fibrosis (n = 10) amounted to 481 Pixel; the size of agglutinates of anti-SP-A latex beads; serum, trimers, chronic bronchitis (n = 10) turned out to be 143 Pixel. In test [4], the size of agglutinates of anti-SP-A latex beads; serum, trimers, controls (n = 10) turned out to be 132 Pixel and the size of agglutinates of anti-SP-A latex beads; serum, trimers, cystic fibrosis (n = 10) was found to be 146 Pixel.
